This passage reports Kd and koff results from paper doi:10.1101/2025.11.04.686334 (2025).

Targets include HA220-M4T; HA220-4; HA220-1 (human, UniProt Q9NZ52 16-146).
What all share (assay): BLI

B1: S1V2-58 mAb (antibody, V domains shown)
VH: QVQLQESGPGLVKPSETLSLTCTVSGGSLSIYYWSWVRQSPGKGLEWIGYISNSGSPTYHPSLKSRVTISLDTSKSQFSLKLTSVTAADTALYFCARGVLEQLAPDFDSYYYGMNVWGQGTTVTVSG
VL: DIQMTQSPSSVSASLGDRVTLTCRASQPIRSYLNWYQHKPGLAPKLLVYAVSNLQSGVPSRFSGSGSGTDFTLTVSSLQPEDFATYYCQQSYSTPYTFGQGTRLEIK
B1: the Kd in the assay with HA220-M4T was 10.7 nM; in the assay with HA220-4, 178 nM. Besides, the koff in the assay with HA220-M4T worked out at 0.00043 s⁻¹.

B2: D2 H1-1/H3-1 mAb (antibody, V domains shown)
VH: QVQLVQSGGGLVRPGGSLRLSCAASGFTFSSAWMTWVRQAPGKGLEWVANIKEDGSEKYYVDSVKGRFSISRDNAKNSLYLQISSLRAEDTAVYYCARRFVERLWGQSKPYDAVDIWGQGTMVTVSG
VL: DIQMTQSPSSLSASVGDRVTITCRASQSISNYLNWYQQKPGKAPKLLIYVASNLQSGVPSRFSGSGSGTDFALTISSLQPEDFASYYCQQSYSPVTTFGGGTKVEIK
On to B2, for which the Kd in the assay with HA220-M4T was found to be 2.55 nM; in the assay with HA220-4 it was 65 nM. The same molecule returned a koff in the assay with HA220-M4T of 0.00017 s⁻¹.

B3: FluA-20 mAb (antibody, V domains shown)
VH: QVQLEESGPGLVKPSETLSLTCSVSGVSVTSDIYYWTWIRQPPGKGLEWIGYIFYNGDTNYNPSLKSRVTMSIDTSKNEFSLRLTSVTAADTAVYFCARGTEDLGYCSSGSCPNHWGQGTLVTVSS
VL: DIVMTQSPSSLSASIGDRVTITCRPSQNIRSFLNWFQHKPGKAPKLLIYAASNLQSGVPSRFSGSGSGTEFTLTIRSLQPEDFATYYCQQSYNTPPTFGQGTKVEIK
As to B3, the Kd in the assay with HA220-M4T was 0.253 nM; with HA220-1 it was > 12000 nM; in the assay with HA220-4, 110 nM.
